According to article doi:10.1101/2023.01.26.525422, “Histone-organized chromatin in bacteria” (bioRxiv, 2023):

T1: Bd0055 (Bdellovibrio bacteriovorus HD100, UniProt Q6MRM1 1-64)
T1 sequence: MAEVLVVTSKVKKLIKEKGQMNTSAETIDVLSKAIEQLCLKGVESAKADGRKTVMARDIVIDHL

B1: Bd0055, Bdellovibrio bacteriovorus histone (natural protein, Bdellovibrio bacteriovorus HD100, UniProt Q6MRM1 1-64, looked up)
chain: MAEVLVVTSKVKKLIKEKGQMNTSAETIDVLSKAIEQLCLKGVESAKADGRKTVMARDIVIDHL
notes: Bd0055, singlet histone fold protein of Bdellovibrio bacteriovorus HD100; the ORF was expressed; No tag is mentioned; purified by ion exchange, heparin and size exclusion; also called wildtype Bd0055; B. bacteriovorus histone; source: E. coli, codon-optimized ORF in a pET vector, purified (SP HP, Heparin HP, S75)
B2: 35 bp DNA (dsDNA)
DNA 1: TCTTGCACTAAGAGCTACTGGAGTGCGTCAGATGT
DNA 2: ACATCTGACGCACTCCAGTAGCTCTTAGTGCAAGA

Tests used:
[1] = target: the molecule itself; test: crystal structure; apo Bd0055; hanging drop, 3.2 M (NH4)2SO4, 100 mM BICINE pH 9; 1.8 Å
Bd0055 = target: T1, Bd0055; test: X-ray crystallography; 10 mM NaCl, 0.1 mM EDTA, 50 mM HEPES pH 7.5; 16:1 protein to DNA; 1 dimer per 2.5 bp; FP/FRET: 10 nM DNA, 10 mM NaCl, 1 mM EDTA, 50 mM HEPES pH 6, RT; EMSA: 1 uM DNA, 10 mM NaCl, 1 mM EDTA, 50 mM HEPES pH 7.5, RT; conditions: protein: recombinant; chain copies: 2; blunt

| Binder | stoichiometry N [1] | binding result (Bd0055) |
| --- | --- | --- |
| B1 | 2 | – |
| B2 | – | binds |
